Patent publication US8114968

The binders below were run against human MMP-12 (human) (UniProt P39900) (assay: cell-based or functional assay).
Chain of human MMP-12 (human) (P39900 106-470 limits assumed): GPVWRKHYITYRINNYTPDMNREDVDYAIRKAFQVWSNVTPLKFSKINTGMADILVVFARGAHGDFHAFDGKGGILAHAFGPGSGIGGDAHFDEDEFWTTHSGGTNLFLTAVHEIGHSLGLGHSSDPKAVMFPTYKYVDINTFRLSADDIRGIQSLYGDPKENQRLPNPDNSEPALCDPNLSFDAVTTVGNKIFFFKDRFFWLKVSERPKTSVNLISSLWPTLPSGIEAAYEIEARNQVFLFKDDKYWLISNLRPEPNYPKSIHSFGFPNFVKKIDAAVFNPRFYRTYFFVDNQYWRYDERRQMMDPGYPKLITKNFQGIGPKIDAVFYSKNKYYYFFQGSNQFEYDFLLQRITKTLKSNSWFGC

| Binder | % of activity left with 100 nM in assay 04 Oct. 2006 | % of activity left with 100 nM in assay 29 Aug. 2006 |
| --- | --- | --- |
| 539B-M0034-C04 (Fab, V domains shown) VH: EVQLLESGGGLVQPGGSLRLSCAASGFTFSEYPMYWVRQAPGKGLEWVSVIYPSGGWTDYADSVKGRFTISRDNSKNTLYLQMNSLRAEDTAVYYCARMAVTGGSRFDYWGQGTLVTVSS VL: DIQMTQSPSSLSASVGDRVSITCRASQNINSYLNWYQQKVGKAPKLLIFGAYTLHSGAPSRFSGSGSGTDFTLTISSLQPEDVATYYCQQTYTSYSFAQGTKLEIK | 38.6% | 39.1% |
| 539B-M0039-F01 (Fab, V domains shown) VH: EVQLLESGGGLVQPGGSLRLSCAASGFTFSRYWMDWVRQAPGKGLEWVSGIYPSGGYTLYADSVKGRFTISRDNSKNTLYLQMNSLRAEDTAVYYCARHGDYMDVWGKGTTVTVSS VL: NIQMTQSPSSVSASVGDRVTITCRASQDINYWLAWYQQKPGKAPKLLIYAASSLQSGVPSRFSGSGSGTDFTLTISSLQPEDFATYYCQRANSFPYTFGQGTKLEIK | 69.4% | 57.8% |
| 539B-M0041-B05 (Fab, V domains shown) VH: EVQLLESGGGLVQPGGSLRLSCAASGFTFSEYPMYWVRQAPGKGLEWVSVIYPSGGWTDYADSVKGRFTISRDNSKNTLYLQMNSLRAEDTAVYYCARMAVTGGSRFDYWGQGTLVTVSS VL: DIQMTQSPSSLSASVGDRVSITCRASQNINSYLNWYQQKVGKAPKLLIFGAYTLHSGAPSRFSGSGSGTDFTLTISSLQPEDVATYYCQQTYTSYSFAQGTKLEIK | 35.1% | – |
| 539B-M0041-G01 (Fab, V domains shown) VH: EVQLLESGGGLVQPGGSLRLSCAASGFTFSYYPMAWVRQAPGKGLEWVSYISSSGGLTTYADSVKGRFTISRDNSKNTLYLQMNSLRAEDTAVYYCARSPTYYDFWSGYWAGIFDYWGQGTLVTVSS VL: DIQMTQSPSSLSASVGDRVTITCRASQSISYFLNWYQQKPGKAPKLLIYAASTLQGGVPSRFRGSGSGTDFTLTISSLQPEDFATYYCQHSYSTPPITFGPGTKVDIK | 109% | 84.8% |
| 539B-M0042-B06 (Fab, V domains shown) VH: EVQLLESGGGLVQPGGSLRLSCAASGFTFSFYHMEWVRQAPGKGLEWVSSISPSGGHTDYADSVKGRFTISRDNSKNTLYLQMNSLRAEDTAVYYCASLLSGTWGQGTLVTVSS VL: DIQMTQSPDTLSLSPGERATLSCRASQTISSTFLAWYQQKPGQAPRLLIYGASTRAAGIPDRFIGSGSGTDFTLTISSLEPEDSAVYYCQQYDRSPTFGGGTKVEIK | 53.6% | – |
| 539B-M0009-H08 (Fab, V domains shown) VH: EVQLLESGGGLVQPGGSLRLSCAASGFTFSMYWMFWVRQAPGKGLEWVSSISSSGGHTFYADSVKGRFTISRDNSKNTLYLQMNSLRAEDTAVYYCARGSYSGYDPFDYWGRGTLVTVSS VL: QYELTQPPALSVAPGETATITCGGDKIGRKSVNWYQQKAGQAPVLVIFYDNDRPSGITGRFSGSNSGNSATLTISRVEAGDEADFYCQVWGPNDFPLFGGGTKLTVL | 103% | – |
| 539B-M0016-D01 (Fab, V domains shown) VH: EVQLLESGGGLVQPGGSLRLSCAASGFTFSEYNMPWVRQAPGKGLEWVSYIYSSGGSTEYADSVKGRFTISRDNSKNTLYLQMNSLRAEDMAVYYCAKDLWEDSSTWGYGMDVWGQGTTVTVSS VL: QSELTQPPSVSVSPGQTATITCSGDVSVHKSFCWYQQRPGQSPVLVIYQIDKRPSGVPERFSGSISGTTATLTISGTQATDEADYYCQGWDSTTYYVFGTGTKVTVL | 48.1% | – |
